Laboratory results from patent US7115410.

Columns and labels:
[1] = biological target: MBP-C125 (maltose-binding protein fused to the last 125 amino acids of APP), P05067
[2] = biological target: T1, P26-P4′sw substrate ((biotin)CGGADRGLTTRPGSGLTNIKTEEISEVNLDAEF) (not fully specified)
T1 chain: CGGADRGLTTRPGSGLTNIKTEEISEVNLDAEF

[3] = biological target: MBP-C125sw (maltose-binding protein fused to the last 125 amino acids of APP, Swedish double mutation) [MBP: P0AEX9]
[4] = biological target: APP 751 wild type (expressed from pohCK751), P05067
APP 751 wild type (expressed from pohCK751), P05067, sequence (P05067 whole entry, looked up): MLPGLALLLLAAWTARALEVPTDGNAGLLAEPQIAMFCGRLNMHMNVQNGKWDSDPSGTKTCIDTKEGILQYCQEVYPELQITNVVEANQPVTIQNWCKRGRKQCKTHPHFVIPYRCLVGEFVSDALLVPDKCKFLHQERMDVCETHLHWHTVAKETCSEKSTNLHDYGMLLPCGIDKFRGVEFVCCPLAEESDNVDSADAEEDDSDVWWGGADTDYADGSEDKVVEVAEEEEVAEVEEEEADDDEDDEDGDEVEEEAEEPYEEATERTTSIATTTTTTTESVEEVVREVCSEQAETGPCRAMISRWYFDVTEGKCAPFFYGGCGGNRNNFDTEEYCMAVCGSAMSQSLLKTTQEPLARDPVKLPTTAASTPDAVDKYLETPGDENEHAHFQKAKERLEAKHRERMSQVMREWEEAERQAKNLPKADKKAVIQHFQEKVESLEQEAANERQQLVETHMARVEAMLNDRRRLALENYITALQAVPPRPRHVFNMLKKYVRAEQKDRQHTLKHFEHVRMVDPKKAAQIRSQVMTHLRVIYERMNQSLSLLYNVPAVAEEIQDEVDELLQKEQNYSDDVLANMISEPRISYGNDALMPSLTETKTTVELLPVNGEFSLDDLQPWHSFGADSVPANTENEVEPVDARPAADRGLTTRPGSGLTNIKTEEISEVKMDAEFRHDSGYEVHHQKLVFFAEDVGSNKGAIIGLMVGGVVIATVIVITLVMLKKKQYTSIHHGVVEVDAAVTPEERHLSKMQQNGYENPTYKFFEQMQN

[5] = biological target: APP 751 with the Swedish mutation (APPsw), P05067
APP 751 with the Swedish mutation (APPsw), P05067, sequence (P05067 whole entry, looked up, change not shown): as the sequence (P05067 whole entry, looked up) above

MBP-C125 (maltose-binding protein fused to the last 125 amino acids of APP), P05067, sequence (P05067 whole entry, looked up, the tested form may be a part): as the sequence (P05067 whole entry, looked up) above

B1: FLp501 (full length recombinant β-secretase having a C-terminal flag sequence) (protein)
chain: TQHGIRLPLRSGLGGAPLGLRLPRETDEEPEEPGRRGSFVEMVDNLRGKSGQGYYVEMTVGSPPQTLNILVDTGSSNFAVGAAPHPFLHRYYQRQLSSTYRDLRKGVYVPYTQGKWEGELGTDLVSIPHGPNVTVRANIAAITESDKFFINGSNWEGILGLAYAEIARPDDSLEPFFDSLVKQTHVPNLFSLQLCGAGFPLNQSEVLASVGGSMIIGGIDHSLYTGSLWYTPIRREWYYEVIIVRVEINGQDLKMDCKEYNYDKSIVDSGTTNLRLPKKVFEAAVKSIKAASSTEKFPDGFWLGEQLVCWQAGTTPWNIFPVISLYLMGEVTNQSFRITILPQQYLRPVEDVATSQDDCYKFAISQSSTGTVMGAVIMEGFYVVFDRARKRIGFAVSACHVHDEFRTAAVEGPFVTLDMEDCGYNIPQTDESTLMTIAYVMAAICALFMLPLCLMVCQWRCLRCLRQQHDDFADDISLLKDYKDDDDK
In the case of B1, the cleavage of substrate [1] is reported as “Both enzymes exhibited activity in cleaving β-secretase substrates such as MBP-C125”.

B2: 452stop (recombinant β-secretase extending from position 1 to 452) (protein)
chain: TQHGIRLPLRSGLGGAPLGLRLPRETDEEPEEPGRRGSFVEMVDNLRGKSGQGYYVEMTVGSPPQTLNILVDTGSSNFAVGAAPHPFLHRYYQRQLSSTYRDLRKGVYVPYTQGKWEGELGTDLVSIPHGPNVTVRANIAAITESDKFFINGSNWEGILGLAYAEIARPDDSLEPFFDSLVKQTHVPNLFSLQLCGAGFPLNQSEVLASVGGSMIIGGIDHSLYTGSLWYTPIRREWYYEVIIVRVEINGQDLKMDCKEYNYDKSIVDSGTTNLRLPKKVFEAAVKSIKAASSTEKFPDGFWLGEQLVCWQAGTTPWNIFPVISLYLMGEVTNQSFRITILPQQYLRPVEDVATSQDDCYKFAISQSSTGTVMGAVIMEGFYVVFDRARKRIGFAVSACHVHDEFRTAAVEGPFVTLDMEDCGYNIPQTDEDYKDDDDK
For B2, the cleavage of substrate [2] was “exhibited activity in cleaving the MBP-C125sw substrate as well as the P26-P4′ substrate”, the cleavage of substrate [1] was “Both enzymes exhibited activity in cleaving β-secretase substrates such as MBP-C125” and the cleavage of substrate [3] was “exhibited activity in cleaving the MBP-C125sw substrate”.

B3: β-secretase purified from human brain (naturally occurring) (protein)
chain: ETDEEPEEPGRRGSFVEMVDNLRGKSGQGYYVEMTVGSPPQTLNILVDTGSSNFAVGAAPHPFLHRYYQRQLSSTYRDLRKGVYVPYTQGKWEGELGTDLVSIPHGPNVTVRANIAAITESDKFFINGSNWEGILGLAYAEIARPDDSLEPFFDSLVKQTHVPNLFSLQLCGAGFPLNQSEVLASVGGSMIIGGIDHSLYTGSLWYTPIRREWYYEVIIVRVEINGQDLKMDCKEYNYDKSIVDSGTTNLRLPKKVFEAAVKSIKAASSTEKFPDGFWLGEQLVCWQAGTTPWNIFPVISLYLMGEVTNQSFRITILPQQYLRPVEDVATSQDDCYKFAISQSSTGTVMGAVIMEGFYVVFDRARKRIGFAVSACHVHDEFRTAAVEGPFVTLDMEDCGYNIPQTDESTLMTIAYVMAAICALFMLPLCLMVCQWRCLRCLRQQHDDFADDISLLK
B3 showed a Specific Activity (MBP-C125sw assay), Affinity Eluate (nM/h/µg prot.) [3] of 258000 and a Specific Activity (MBP-C125sw assay), Anion Exchange Pool (nM/h/µg prot.) [3] of 1.49e+06.

B4: full length β-secretase (clone 27; 1-501) (protein)
chain: TQHGIRLPLRSGLGGAPLGLRLPRETDEEPEEPGRRGSFVEMVDNLRGKSGQGYYVEMTVGSPPQTLNILVDTGSSNFAVGAAPHPFLHRYYQRQLSSTYRDLRKGVYVPYTQGKWEGELGTDLVSIPHGPNVTVRANIAAITESDKFFINGSNWEGILGLAYAEIARPDDSLEPFFDSLVKQTHVPNLFSLQLCGAGFPLNQSEVLASVGGSMIIGGIDHSLYTGSLWYTPIRREWYYEVIIVRVEINGQDLKMDCKEYNYDKSIVDSGTTNLRLPKKVFEAAVKSIKAASSTEKFPDGFWLGEQLVCWQAGTTPWNIFPVISLYLMGEVTNQSFRITILPQQYLRPVEDVATSQDDCYKFAISQSSTGTVMGAVIMEGFYVVFDRARKRIGFAVSACHVHDEFRTAAVEGPFVTLDMEDCGYNIPQTDESTLMTIAYVMAAICALFMLPLCLMVCQWRCLRCLRQQHDDFADDISLLK
In the case of B4, the “Aβ(x-40) production (ELISA of conditioned media)” value [4] is reported as “approximately 8-fold increase in Aβ(x-40) production” and the “Aβ(x-40) production (ELISA of conditioned media)” value [5] is reported as “approximate 2-fold increase in Aβ(x-40)”.
